In test [1] the target is T1, microtubule-associated protein 1A/1B light chain 3B protein (human, UniProt Q9GZQ8 1-120). Put plainly: BLI. A general note: BLI is a label-free optical method that tracks binding on a fibre tip over time.
In test [2] the target is T1, microtubule-associated protein 1A/1B …. Put plainly: fluorescence polarisation.
For a further test, the target named is GABARAP (human, UniProt O95166 1-117). Description: BLI.

Ends that are not written are not given here.

For three molecules, Kd results are on record in article PMC7872222 (Chembiochem : a European journal of chemical biology, 2020).

The term Kd denotes the free concentration of one partner at which half of the binding sites on the other are occupied at equilibrium, for simple one-to-one binding. A higher Kd goes with a looser complex.

Chain of GABARAP (O95166 whole entry): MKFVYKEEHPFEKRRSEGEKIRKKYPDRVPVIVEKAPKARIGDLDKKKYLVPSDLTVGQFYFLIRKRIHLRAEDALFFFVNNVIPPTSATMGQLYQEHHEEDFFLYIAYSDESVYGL

B1: FYCO1 peptide C1289S (peptide)
peptide: DDAVFDIITDEELSQIQEW
HELM: PEPTIDE1{[O=C1N[C@H]2[C@H](CS[C@H]2CCCCC(=O)[*:2])N1].[bAla].[bAla].D.D.A.V.F.D.I.I.T.D.E.E.L.S.Q.I.Q.E.W.[am]}$$$$V2.0
SMILES: CC[C@H](C)[C@H](NC(=O)[C@H](CCC(N)=O)NC(=O)[C@H](CO)NC(=O)[C@H](CC(C)C)NC(=O)[C@H](CCC(=O)O)NC(=O)[C@H](CCC(=O)O)NC(=O)[C@H](CC(=O)O)NC(=O)[C@@H](NC(=O)[C@@H](NC(=O)[C@@H](NC(=O)[C@H](CC(=O)O)NC(=O)[C@H](Cc1ccccc1)NC(=O)[C@@H](NC(=O)[C@H](C)NC(=O)[C@H](CC(=O)O)NC(=O)[C@H](CC(=O)O)NC(=O)CCNC(=O)CCNC(=O)CCCC[C@@H]1SC[C@@H]2NC(=O)N[C@@H]21)C(C)C)[C@@H](C)CC)[C@@H](C)CC)[C@@H](C)O)C(=O)N[C@@H](CCC(N)=O)C(=O)N[C@@H](CCC(=O)O)C(=O)N[C@@H](Cc1c[nH]c2ccccc12)C(N)=O
The molecule B1 showed a Kd in test [1] of 330 nM.

B2: fluorescein-labeled K1 peptide (peptide)
peptide: Fluorescein-DATYTWEHLAWP
Take B2: the Kd in test [2] turned out to be 1200 nM.

B3: biotinylated K1 peptide (peptide)
peptide: DATYTWEHLAWP
HELM: PEPTIDE1{[O=C1N[C@H]2[C@H](CS[C@H]2CCCCC(=O)[*:2])N1].[bAla].[bAla].D.A.T.Y.T.W.E.H.L.A.W.P.[am]}$$$$V2.0
SMILES: CC(C)C[C@H](NC(=O)[C@H](Cc1c[nH]cn1)NC(=O)[C@H](CCC(=O)O)NC(=O)[C@H](Cc1c[nH]c2ccccc12)NC(=O)[C@@H](NC(=O)[C@H](Cc1ccc(O)cc1)NC(=O)[C@@H](NC(=O)[C@H](C)NC(=O)[C@H](CC(=O)O)NC(=O)CCNC(=O)CCNC(=O)CCCC[C@@H]1SC[C@@H]2NC(=O)N[C@@H]21)[C@@H](C)O)[C@@H](C)O)C(=O)N[C@@H](C)C(=O)N[C@@H](Cc1c[nH]c2ccccc12)C(=O)N1CCC[C@H]1C(N)=O
B3 had a Kd with GABARAP of 390 nM.
